The values that follow come from patent US20200009222A1, “[…] ACTIVE COMPLEXES” (HAMLET PHARMA AB, priority 2016, published 2020).

One series has as its system MB49 bladder tumor. The series can be described thus: Real-time in vivo fluorescence imaging and tissue uptake of labeled complex. The note with it: tumor-bearing mice; intravesical; 24 hours.
In series [1] the test system is adherent lung carcinoma cells (A549). The series can be described thus: Live cell imaging of Alexa-Fluor labeled HAMLET uptake. The format is cell-based, human. The note with it: 35 μM, 1 hour. On the procedure:
For uptake experiments lung carcinoma cells were treated with Alexa-488 or 568 labeled HAMLET, washed and visualized under confocal microscope live. Localization of HAMLET in lysosomes was detected by pre-labelling the cells with lysotracker (LysoTracker Green DND-26, Thermo Fisher). For peptide or peptide-oleate complexes uptake, lung carcinoma cells were treated with individual biotinylated peptide alone or mixed with sodium oleate. Cells were fixed (2% PFA, 10 min), permeabilized (0.25% Triton X-100) and blocked with FCS (10% in PBS). The biotinylated peptides were detected with Alexa-488 or 568 labeled streptavidin conjugate (1:200, 5% FCS/PBS, 1 hour). The accumulation of peptide or peptide oleate complexes in lysosomes was investigated by treatment of lung carcinoma cells with Alexa-568 labeled peptide (20%) or peptide-oleate complexes for 1 hour. Cells were counter stained with lysosomal marker, Lysotracker. Slides were examined using LSM 510 META or LSM 800 laser scanning confocal microscope (Carl Zeiss).
During live cell imaging of Alexa-Fluor labeled HAMLET (35 μM, 1 hour) and adherent lung carcinoma cells (A549), two distinct cellular staining patterns (FIG. 1a) were detected. […] Nuclear speckles reside in the inter-chromatin space of eukaryotic nuclei and serve as important nodes in the splicing of pre-mRNA and transport of spliced RNA. […]

Another series relates to SC-35. The series can be described thus: SC-35 phosphorylation, Western blot analysis and flow cytometry. Format: cell-based. (Immunoblotting shows a protein as a band on a membrane.)
Series [2] deals with Protein kinase C (PKC) isoforms. Nature of the series: Kinex KAM-850 phospho-antibody array. The format is cell-based, human. The note with it: 1 hour, 21 uM. On the procedure:
The in vivo kinase activity assay was performed using Kinex™ KAM-850 Antibody Microarray Services (Kinexus, Canada). Untreated and HAMLET-treated samples were performed in duplicates. Raw quantification data and basic analyses for individual samples were provided. Reference data, consolidated data of over 200 samples was also provided as reference, confirming the validity of the assay performed. Targets with percent fold change over control>10 were significant. The targets were identified in the human profiling human activity-based phosphorylation network (Molecular Systems Biology 9:655).

In the next series the test system is PKC isoforms. The series can be described thus: ProtoArray Human Protein Microarray interaction profiling. Format: binding. The note with it: screen of 8000 human proteins. As to the method: (§1) ProtoArray® Human Protein Microarray version 4.0 (Invitrogen) was performed as previously described^20, which consists of approximately 8,000 human proteins. AlexaFluor®568-labeled HAMLET was added to protein arrays at two concentrations (5 and 50 ng/μl) in duplicate, and the fluorescence was measured by using GenePix 6.0. Negative control array was incubated with buffer alone and scanned at a wavelength of 532 nm. […] The interactions were quantified as fold change (FCs) over the average negative control value.

A further series deals with histone H3. The series is described as above. Format: binding. The note with it: screen of 8000 human proteins. On the procedure: as §1
For the next series, the system named is bladder cancer. The note with it: prior clinical study; cited from earlier work.

Experimental for MB49 bladder tumor: HAMLET or peptides were labeled using VivoTag 680XL Protein Labeling Kit (Perkin Elmer). Mice were anaesthetized using Isofluorane and 100 ul solution of labeled HAMLET or peptide was instilled in bladders of tumor bearing or healthy control mice.
Hair was removed from the ventral sides of anesthetized mice. Mice were imaged at various time points using an IVIS Spectrum imaging system (Perkin Elmer). Signals from HAMLET or peptides were acquired at fluorescent settings with 680 nm excitation. For tissue specific uptake, Alexa-568 labeled peptide was instilled in bladders of tumor bearing or healthy control mice. Mice were sacrificed after 24 hours of treatment and bladder sections were imaged using Zeiss AX10 fluorescence microscope.
The retention of alpha-peptide oleate complexes by the tumor was visualized, by in vivo imaging in mice with palpable tumors. VivoTag 680XL labeled alpha1 peptide-oleate complexes were instilled intra-vesically on day 8 after the inoculation of MB49 cells and the fluorescence signal was monitored longitudinally, using the IVIS spectrum in vivo imaging system.
To verify that the alpha-peptides are retained by the bladder tumor, Alexa Fluor-568 labeled alpha1 peptide-oleate complexes were instilled into the bladders of tumor bearing mice (day 8, palpable tumors).
Experimental for SC-35: Cells were grown on 6-well plates (3×10^5/well, TPP) overnight. Cells treated with HAMLET were lysed with mammalian NP-40 lysis buffer supplemented with protease and phosphatase inhibitors (both from Roche Diagnostics). […] The anti-GAPDH (1:1,000, sc-25778, Santa Cruz) and anti-Histone H3 (ab1791, Abcam) were used as loading controls. Primary antibodies followed by HRP-conjugated secondary anti-rabbit or anti-mouse antibodies (1:4000, 5% NFDM, Cell Signaling) and visualized using ECL Plus detection reagent (GE Health Care). Band intensities were quantified using the ImageJ software 1.46r (NIH).

B1: HAMLET (protein)
chain: KQFTKCELSQLLKDIDGYGGIALPELICTMFHTSGYDTQAIVENNESTEYGLFQISNKLWCKSSQVPQSRNICDISCDKFLDDDITDDIMCAKKILDIKGIDYWLAHKALCTEKLEQWLCEKL
On to B1, for which the “Fluorescence signal of VivoTag 680XL labeled complex, retention” value in the series with MB49 bladder tumor is on record as “retention”. For the same molecule, in series [1], the “Population I cells (membrane blebbing, diffuse cytoplasmic staining, nuclear speckle accumulation)” value turned out to be 51% and the “Population II cells (exclusively cytoplasmic, lysosomal uptake)” value was 47%. Besides, in the series with SC-35, the SC-35 phosphorylation entry is given as “inhibited”. In series [2], the “PKC isoforms with inhibited phosphorylation” value is listed as 5/6. Besides, the “Binding to PKC isoforms in proteomic screen” value with PKC isoforms is given as “identified as HAMLET targets”. The “Affinity for histone H3 in proteomic screen” value with histone H3 is listed as “confirmed”. In the series on bladder cancer, the Toxic effects result was “not detected” and the “Tumor response to intravesical instillations” value is recorded as “massive tumor cell exfoliation”.
